Here are results for 6 molecules from US20160272693A1 (ZEALAND PHARMA A S, published 2016).

The test has as its target T1, human amylin receptor 3 (hAMYR3), hCTR2 co-expressed with human receptor activity modifying protein 3 (hRAMP3) (human, UniProt P30988 25-474; O60896 24-148).
T1 sequence (looked up) 1: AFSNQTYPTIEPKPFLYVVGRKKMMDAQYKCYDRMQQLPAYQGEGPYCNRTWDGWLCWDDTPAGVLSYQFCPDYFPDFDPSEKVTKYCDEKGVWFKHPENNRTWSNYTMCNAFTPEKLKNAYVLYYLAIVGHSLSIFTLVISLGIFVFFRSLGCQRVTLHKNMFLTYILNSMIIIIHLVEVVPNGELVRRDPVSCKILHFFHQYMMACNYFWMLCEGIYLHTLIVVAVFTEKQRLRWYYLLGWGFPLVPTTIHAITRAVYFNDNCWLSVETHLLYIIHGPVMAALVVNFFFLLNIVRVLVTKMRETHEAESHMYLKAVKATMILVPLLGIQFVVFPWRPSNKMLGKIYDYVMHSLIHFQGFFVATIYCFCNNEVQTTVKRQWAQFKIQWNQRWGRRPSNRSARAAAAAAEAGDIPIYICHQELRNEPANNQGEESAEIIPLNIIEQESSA
T1 sequence (looked up) 2: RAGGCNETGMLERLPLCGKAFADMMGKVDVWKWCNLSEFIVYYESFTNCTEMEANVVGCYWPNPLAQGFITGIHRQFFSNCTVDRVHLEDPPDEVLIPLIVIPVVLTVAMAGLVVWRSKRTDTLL
Nature of the test: cell-based or functional assay.

*1 amine or outer side, *2 acyl side, *3 side chain or, on linkers, in order; H or OH if unused. Bridges are numbered along the chain shown (N, C = ends). [ ]: non-standard residue; d: D form. The star is where a group is joined. C20 diacid = O=C(O)CCCCCCCCCCCCCCCCCCC(=O)*; γGlu = O=C(O)[C@H](CCC(=O)[*:2])N[*:1]; Hyp = O=C(O)[C@@H]1C[C@@H](O)CN1; NMeI = CC[C@H](C)[C@H](NC)C(=O)O; Sar = CNCC(=O)O

B1: [19CD]-isoGlu-R-C( )-GTAT-C( )-ATERLAHFLQRSSF-Gly(Me)-A-Ile(Me)-LSSTEVGSNT-Hyp-NH2 (Compd. 7) (peptide)
peptide: {C20 diacid}-[γGlu]RCGTATCATERLAHFLQRSSF[Sar]A[NMeI]LSSTEVGSNT[Hyp]-NH2
modifications: disulfide 3-8
SMILES: CC[C@H](C)[C@@H](C(=O)N[C@@H](CC(C)C)C(=O)N[C@@H](CO)C(=O)N[C@@H](CO)C(=O)N[C@H](C(=O)N[C@@H](CCC(=O)O)C(=O)N[C@H](C(=O)NCC(=O)N[C@@H](CO)C(=O)N[C@@H](CC(N)=O)C(=O)N[C@H](C(=O)N1C[C@H](O)C[C@H]1C(N)=O)[C@@H](C)O)C(C)C)[C@@H](C)O)N(C)C(=O)[C@H](C)NC(=O)CN(C)C(=O)[C@H](Cc1ccccc1)NC(=O)[C@H](CO)NC(=O)[C@H](CO)NC(=O)[C@H](CCCNC(=N)N)NC(=O)[C@H](CCC(N)=O)NC(=O)[C@H](CC(C)C)NC(=O)[C@H](Cc1ccccc1)NC(=O)[C@H](Cc1c[nH]cn1)NC(=O)[C@H](C)NC(=O)[C@H](CC(C)C)NC(=O)[C@H](CCCNC(=N)N)NC(=O)[C@H](CCC(=O)O)NC(=O)[C@@H](NC(=O)[C@H](C)NC(=O)[C@@H]1CSSC[C@H](NC(=O)[C@H](CCCNC(=N)N)NC(=O)CC[C@H](NC(=O)CCCCCCCCCCCCCCCCCCC(=O)O)C(=O)O)C(=O)NCC(=O)N[C@@H]([C@@H](C)O)C(=O)N[C@@H](C)C(=O)N[C@@H]([C@@H](C)O)C(=O)N1)[C@@H](C)O
Turning to B1, the “hAMYR3 EC50 (nM); cAMP induction” value is 0.34 nM.

B2: [19CD]-isoGlu-R-C( )-NTAT-C( )-ATQRLAHFLQRSSF-Gly(Me)-A-Ile(Me)-LSSTEVGSGT-Hyp-NH2 (Compd. 71) (peptide)
peptide: {C20 diacid}-[γGlu]RCNTATCATQRLAHFLQRSSF[Sar]A[NMeI]LSSTEVGSGT[Hyp]-NH2
modifications: disulfide 3-8
SMILES: CC[C@H](C)[C@@H](C(=O)N[C@@H](CC(C)C)C(=O)N[C@@H](CO)C(=O)N[C@@H](CO)C(=O)N[C@H](C(=O)N[C@@H](CCC(=O)O)C(=O)N[C@H](C(=O)NCC(=O)N[C@@H](CO)C(=O)NCC(=O)N[C@H](C(=O)N1C[C@H](O)C[C@H]1C(N)=O)[C@@H](C)O)C(C)C)[C@@H](C)O)N(C)C(=O)[C@H](C)NC(=O)CN(C)C(=O)[C@H](Cc1ccccc1)NC(=O)[C@H](CO)NC(=O)[C@H](CO)NC(=O)[C@H](CCCNC(=N)N)NC(=O)[C@H](CCC(N)=O)NC(=O)[C@H](CC(C)C)NC(=O)[C@H](Cc1ccccc1)NC(=O)[C@H](Cc1c[nH]cn1)NC(=O)[C@H](C)NC(=O)[C@H](CC(C)C)NC(=O)[C@H](CCCNC(=N)N)NC(=O)[C@H](CCC(N)=O)NC(=O)[C@@H](NC(=O)[C@H](C)NC(=O)[C@@H]1CSSC[C@H](NC(=O)[C@H](CCCNC(=N)N)NC(=O)CC[C@H](NC(=O)CCCCCCCCCCCCCCCCCCC(=O)O)C(=O)O)C(=O)N[C@@H](CC(N)=O)C(=O)N[C@@H]([C@@H](C)O)C(=O)N[C@@H](C)C(=O)N[C@@H]([C@@H](C)O)C(=O)N1)[C@@H](C)O
In the case of B2, the “hAMYR3 EC50 (nM); cAMP induction” value is 0.18 nM.

B3: [19CD]-isoGlu-R-C( )-PTAT-C( )-ATERLAHFLQRSSF-Gly(Me)-A-Ile(Me)-LSSTEVGSST-Hyp-NH2 (Compd. 70) (peptide)
peptide: {C20 diacid}-[γGlu]RCPTATCATERLAHFLQRSSF[Sar]A[NMeI]LSSTEVGSST[Hyp]-NH2
modifications: disulfide 3-8
SMILES: CC[C@H](C)[C@@H](C(=O)N[C@@H](CC(C)C)C(=O)N[C@@H](CO)C(=O)N[C@@H](CO)C(=O)N[C@H](C(=O)N[C@@H](CCC(=O)O)C(=O)N[C@H](C(=O)NCC(=O)N[C@@H](CO)C(=O)N[C@@H](CO)C(=O)N[C@H](C(=O)N1C[C@H](O)C[C@H]1C(N)=O)[C@@H](C)O)C(C)C)[C@@H](C)O)N(C)C(=O)[C@H](C)NC(=O)CN(C)C(=O)[C@H](Cc1ccccc1)NC(=O)[C@H](CO)NC(=O)[C@H](CO)NC(=O)[C@H](CCCNC(=N)N)NC(=O)[C@H](CCC(N)=O)NC(=O)[C@H](CC(C)C)NC(=O)[C@H](Cc1ccccc1)NC(=O)[C@H](Cc1c[nH]cn1)NC(=O)[C@H](C)NC(=O)[C@H](CC(C)C)NC(=O)[C@H](CCCNC(=N)N)NC(=O)[C@H](CCC(=O)O)NC(=O)[C@@H](NC(=O)[C@H](C)NC(=O)[C@@H]1CSSC[C@H](NC(=O)[C@H](CCCNC(=N)N)NC(=O)CC[C@H](NC(=O)CCCCCCCCCCCCCCCCCCC(=O)O)C(=O)O)C(=O)N2CCC[C@H]2C(=O)N[C@@H]([C@@H](C)O)C(=O)N[C@@H](C)C(=O)N[C@@H]([C@@H](C)O)C(=O)N1)[C@@H](C)O
For B3, the “hAMYR3 EC50 (nM); cAMP induction” value was 0.36 nM.

B4: [19CD]-isoGlu-R-C( )-NTAT-C( )-ATQRLAHFLQRSSF-Gly(Me)-A-Ile(Me)-LSSTEVGSTT-Hyp-NH2 (Compd. 73) (peptide)
peptide: {C20 diacid}-[γGlu]RCNTATCATQRLAHFLQRSSF[Sar]A[NMeI]LSSTEVGSTT[Hyp]-NH2
modifications: disulfide 3-8
SMILES: CC[C@H](C)[C@@H](C(=O)N[C@@H](CC(C)C)C(=O)N[C@@H](CO)C(=O)N[C@@H](CO)C(=O)N[C@H](C(=O)N[C@@H](CCC(=O)O)C(=O)N[C@H](C(=O)NCC(=O)N[C@@H](CO)C(=O)N[C@H](C(=O)N[C@H](C(=O)N1C[C@H](O)C[C@H]1C(N)=O)[C@@H](C)O)[C@@H](C)O)C(C)C)[C@@H](C)O)N(C)C(=O)[C@H](C)NC(=O)CN(C)C(=O)[C@H](Cc1ccccc1)NC(=O)[C@H](CO)NC(=O)[C@H](CO)NC(=O)[C@H](CCCNC(=N)N)NC(=O)[C@H](CCC(N)=O)NC(=O)[C@H](CC(C)C)NC(=O)[C@H](Cc1ccccc1)NC(=O)[C@H](Cc1c[nH]cn1)NC(=O)[C@H](C)NC(=O)[C@H](CC(C)C)NC(=O)[C@H](CCCNC(=N)N)NC(=O)[C@H](CCC(N)=O)NC(=O)[C@@H](NC(=O)[C@H](C)NC(=O)[C@@H]1CSSC[C@H](NC(=O)[C@H](CCCNC(=N)N)NC(=O)CC[C@H](NC(=O)CCCCCCCCCCCCCCCCCCC(=O)O)C(=O)O)C(=O)N[C@@H](CC(N)=O)C(=O)N[C@@H]([C@@H](C)O)C(=O)N[C@@H](C)C(=O)N[C@@H]([C@@H](C)O)C(=O)N1)[C@@H](C)O
With B4, the “hAMYR3 EC50 (nM); cAMP induction” value came to 0.24 nM.

B5: [19CD]-isoGlu-R-C( )-PTAT-C( )-ATERLAHFLQRSSF-Gly(Me)-A-Ile(Me)-LSSTEVGSGT-Hyp-NH2 (Compd. 72) (peptide)
peptide: {C20 diacid}-[γGlu]RCPTATCATERLAHFLQRSSF[Sar]A[NMeI]LSSTEVGSGT[Hyp]-NH2
modifications: disulfide 3-8
SMILES: CC[C@H](C)[C@@H](C(=O)N[C@@H](CC(C)C)C(=O)N[C@@H](CO)C(=O)N[C@@H](CO)C(=O)N[C@H](C(=O)N[C@@H](CCC(=O)O)C(=O)N[C@H](C(=O)NCC(=O)N[C@@H](CO)C(=O)NCC(=O)N[C@H](C(=O)N1C[C@H](O)C[C@H]1C(N)=O)[C@@H](C)O)C(C)C)[C@@H](C)O)N(C)C(=O)[C@H](C)NC(=O)CN(C)C(=O)[C@H](Cc1ccccc1)NC(=O)[C@H](CO)NC(=O)[C@H](CO)NC(=O)[C@H](CCCNC(=N)N)NC(=O)[C@H](CCC(N)=O)NC(=O)[C@H](CC(C)C)NC(=O)[C@H](Cc1ccccc1)NC(=O)[C@H](Cc1c[nH]cn1)NC(=O)[C@H](C)NC(=O)[C@H](CC(C)C)NC(=O)[C@H](CCCNC(=N)N)NC(=O)[C@H](CCC(=O)O)NC(=O)[C@@H](NC(=O)[C@H](C)NC(=O)[C@@H]1CSSC[C@H](NC(=O)[C@H](CCCNC(=N)N)NC(=O)CC[C@H](NC(=O)CCCCCCCCCCCCCCCCCCC(=O)O)C(=O)O)C(=O)N2CCC[C@H]2C(=O)N[C@@H]([C@@H](C)O)C(=O)N[C@@H](C)C(=O)N[C@@H]([C@@H](C)O)C(=O)N1)[C@@H](C)O
Turning to B5, the “hAMYR3 EC50 (nM); cAMP induction” value came to 0.27 nM.

B6: [19CD]-isoGlu-R-C( )-PTAT-C( )-ATERLAHFLQRSSF-Gly(Me)-A-Ile(Me)-LSSTEVGSTT-Hyp-NH2 (Compd. 74) (peptide)
peptide: {C20 diacid}-[γGlu]RCPTATCATERLAHFLQRSSF[Sar]A[NMeI]LSSTEVGSTT[Hyp]-NH2
modifications: disulfide 3-8
SMILES: CC[C@H](C)[C@@H](C(=O)N[C@@H](CC(C)C)C(=O)N[C@@H](CO)C(=O)N[C@@H](CO)C(=O)N[C@H](C(=O)N[C@@H](CCC(=O)O)C(=O)N[C@H](C(=O)NCC(=O)N[C@@H](CO)C(=O)N[C@H](C(=O)N[C@H](C(=O)N1C[C@H](O)C[C@H]1C(N)=O)[C@@H](C)O)[C@@H](C)O)C(C)C)[C@@H](C)O)N(C)C(=O)[C@H](C)NC(=O)CN(C)C(=O)[C@H](Cc1ccccc1)NC(=O)[C@H](CO)NC(=O)[C@H](CO)NC(=O)[C@H](CCCNC(=N)N)NC(=O)[C@H](CCC(N)=O)NC(=O)[C@H](CC(C)C)NC(=O)[C@H](Cc1ccccc1)NC(=O)[C@H](Cc1c[nH]cn1)NC(=O)[C@H](C)NC(=O)[C@H](CC(C)C)NC(=O)[C@H](CCCNC(=N)N)NC(=O)[C@H](CCC(=O)O)NC(=O)[C@@H](NC(=O)[C@H](C)NC(=O)[C@@H]1CSSC[C@H](NC(=O)[C@H](CCCNC(=N)N)NC(=O)CC[C@H](NC(=O)CCCCCCCCCCCCCCCCCCC(=O)O)C(=O)O)C(=O)N2CCC[C@H]2C(=O)N[C@@H]([C@@H](C)O)C(=O)N[C@@H](C)C(=O)N[C@@H]([C@@H](C)O)C(=O)N1)[C@@H](C)O
For the molecule B6, the “hAMYR3 EC50 (nM); cAMP induction” value was 0.39 nM.
